Source: article PMC7468311 (Acta Pharmacologica Sinica, 2020)
“Also recorded” adds a separate entry of the source.

Columns and labels:
rat plasma [1] = assay: Plasma clotting measurement in vitro, aPTT; type: biochemical, Sprague Dawley (SD) rats; conditions: at the same concentration
rat plasma [2] = assay: Plasma clotting measurement in vitro, PT; type: biochemical, Sprague Dawley (SD) rats; conditions: at the same concentration
rat plasma [3] = assay: Plasma clotting measurement in vitro, TT; type: biochemical, Sprague Dawley (SD) rats; conditions: at the same concentration
thrombin = thrombin (Homo sapiens, UniProt P00734); assay: Bio-layer interferometry; type: binding
DTIP C6A-C14A mutant = assay: BLI
DTIP D24A mutant = assay: BLI
DTIP E35A mutant = assay: BLI
DTIP Y3A mutant = assay: BLI
[4] = target: direct thrombin inhibitor peptide (DTIP); assay: BLI

## bivalirudin
Rat plasma [1]
  aPTT of DTIP compared with bivalirudin: on the same order of magnitude
Rat plasma [2]
  PT of DTIP compared with bivalirudin: on the same order of magnitude
Rat plasma [3]
  TT of DTIP compared with bivalirudin: on the same order of magnitude

## enoxaparin sodium
thrombin
  Binding of thrombin in BLI (in words): no direct interaction; also recorded: No binding

## thrombin (enzyme)
DTIP C6A-C14A mutant
  Kd: 138 nM
DTIP D24A mutant
  Kd: 194 nM
DTIP E35A mutant
  Kd: 188 nM
DTIP Y3A mutant
  Kd: 162 nM
[4]
  Kd: 164 nM
